In PMC5673489 (Cell, 2017):

How the values were obtained:
[1] = biological target: FIT-1 bispecific antibody (Fabs-in-tandem-Ig, ZKA190 outer Fab, ZKA185 inner Fab, IgG1 LALA) (human); assay: SPR
[2] = biological target: T1, recombinant DIII of ZIKV E protein (Brazil 2015 strain SPH2015) (Zika virus, Brazil 2015 strain SPH2015, strain); assay: SPR
T1 chain: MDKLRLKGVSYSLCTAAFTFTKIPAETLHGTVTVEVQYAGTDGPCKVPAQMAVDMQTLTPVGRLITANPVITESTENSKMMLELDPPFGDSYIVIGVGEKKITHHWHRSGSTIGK

[3] = biological target: T1, recombinant DIII of ZIKV E protein …; assay: NMR titration

In the case of “recombinant E protein from ZIKV (natural protein)”, the Kd [1] is reported as < 1 pM.

B1: ZKA190 IgG (antibody, V domains shown)
VH: QVQLVESGGGVVQPGRSLRLSCAASGFTFSKYGMHWVRQAPGKGLEWVAVISYEGSNKYYADSVKGRFTISRDNSKNTLYLQMNSLRAEDTAVYYCAKSGTQYYDTTGYEYRGLEYFGYWGQGTLVTVS
VL: EIVLTQSPGTLSLSPGERATLSCRASQSVSSSYLAWYQQKRGQAPRLLIYDASSRATGIPDRFSGSGSGTDFTLTISRLEPEDFAVYYCQQYGRSRWTFGQGTKVEIK
B1: binds [2].

B2: ZKA190 Fab (Fab, V domains shown)
VH: B1 VH
VL: B1 VL
B2: binds [3].
